Experimental findings from patent publication US20250034268A1 (Innovent, published 2025) are described below.

Numbering of substitutions follows the chain as printed.

The target of one experiment is T1, Human BCMA monomer (human, UniProt Q02223 1-54, limits assumed).
T1 construct: also called BCMA from human (mobile phase)
T1 sequence (looked up): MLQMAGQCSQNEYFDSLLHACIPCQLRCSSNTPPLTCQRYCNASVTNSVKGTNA
Briefly: BLI (ForteBio Octet), IgG captured on AHC probe, antigen in solution, monovalent.

Another experiment addresses T2, Human BCMA-IHM (human, UniProt Q02223 1-54).
T2 construct: also called BCMA from human (mobile phase); not shown: 'IHM' is not explained; it may be a tag
T2 sequence (looked up): T1 sequence (looked up)
The experiment is described as above.

Experiment [1] addresses T3, human BCMA expressed on the cell surface (human, UniProt Q02223 1-184).
T3 construct: The same molecule is used here for hBCMA-CHO GS cells and for the endogenous BCMA of the myeloma lines; also called Human BCMA CHO-S cell; H929
T3 sequence: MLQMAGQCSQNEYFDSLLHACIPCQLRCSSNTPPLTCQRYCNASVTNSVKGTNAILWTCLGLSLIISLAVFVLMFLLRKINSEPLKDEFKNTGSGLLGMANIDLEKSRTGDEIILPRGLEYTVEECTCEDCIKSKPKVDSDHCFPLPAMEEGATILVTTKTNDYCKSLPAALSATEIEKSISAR
Briefly: flow cytometry, 10 nM antibody on H929 cells. (In general: In flow cytometry, cells or beads pass a laser one at a time.)

Experiment [2] addresses T3, human BCMA expressed on the cell surface. Briefly: flow cytometry, 10 nM antibody on human BCMA CHO-S cells.
Experiment [3] has the same target. Briefly: flow cytometry, 10 nM antibody on human BCMA CHO-S cells against CHO-S cells.
For the next experiment, the target named is T4, Mouse BCMA-Fc (mouse, UniProt O88472 1-49, limits assumed).
T4 construct: also called BCMA from mouse (mobile phase); not shown: Fc part
Nature of the experiment: BLI (ForteBio Octet), IgG captured on AHC probe, antigen in solution, avid.

For experiment [4], the target named is T5, Cynomolgus monkey BCMA-Fc (cynomolgus monkey, UniProt A0A2K5UD97 1-53).
T5 construct: also called BCMA from cynomolgus monkey (mobile phase); not shown: Fc part
T5 sequence (A0A2K5UD97 entry or part of it): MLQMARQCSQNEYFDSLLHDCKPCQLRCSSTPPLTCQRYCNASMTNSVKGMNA
The description is as above.

For experiment [5], the target named is T3, human BCMA expressed on the cell surface. Briefly: flow cytometry on H929 cells.
For experiment [6] the target is unchanged. Nature of the experiment: flow cytometry on AMO1 cells.
Experiment [7] has the same target. Briefly: flow cytometry on hBCMA-CHO-GS cells.
The target is the same in experiment [8]. Nature of the experiment: flow cytometry on MM.1s cells.
Experiment [9] shares this target. Nature of the experiment: flow cytometry on L363 cells.
Experiment [10] shares this target. Briefly: flow cytometry on RPMI8226 cells.
Experiment [11] has as its target T6, recombinant human BCMA protein (human, UniProt Q02223 1-54, limits assumed).
T6 construct: The construct is not described
T6 sequence (looked up): T1 sequence (looked up)
Briefly: SPR (Biacore T200), antibody captured by anti-human Fc on CM5 chip, antigen 1.25-40 nM, 1:1 model. Background: Surface plasmon resonance follows binding to a sensor surface in real time, without labels.

Experiment [12] addresses T7, recombinant cynomolgus monkey BCMA protein (cynomolgus monkey, UniProt A0A2K5UD97 1-53).
T7 construct: The construct is not described
Described as above.

Experiment [13] addresses T8, recombinant mouse BCMA protein (mouse, UniProt O88472 1-49, limits assumed).
T8 construct: The construct is not described
T8 chain (looked up): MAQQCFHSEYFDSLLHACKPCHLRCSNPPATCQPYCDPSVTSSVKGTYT
The experiment is described as above.

In experiment [14] the target is T9, recombinant rat BCMA protein (rat).
T9 construct: The construct is not described
The experiment is described as above.

In experiment [15] the target is T10, mouse BCMA expressed on CHO GS cells (mouse, UniProt O88472 1-185).
T10 construct: whole, on cells; also called mBCMA-CHO GS; mBCMA-CHO-GS
T10 sequence (looked up): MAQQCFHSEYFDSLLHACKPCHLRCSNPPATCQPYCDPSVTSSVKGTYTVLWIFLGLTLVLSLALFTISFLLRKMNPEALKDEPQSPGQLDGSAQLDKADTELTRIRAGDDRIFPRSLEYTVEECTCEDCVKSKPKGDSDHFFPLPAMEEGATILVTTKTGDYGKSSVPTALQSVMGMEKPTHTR
Briefly: flow cytometry on mBCMA-CHO-GS cells.

Experiment [16] deals with T11, cynomolgus monkey BCMA expressed on CHO GS cells (cynomolgus monkey, UniProt A0A2K5UD97 1-183).
T11 construct: whole, on cells; also called cynoBCMA-CHO GS; cynoBCMA-CHO-GS
T11 sequence (A0A2K5UD97 entry or part of it): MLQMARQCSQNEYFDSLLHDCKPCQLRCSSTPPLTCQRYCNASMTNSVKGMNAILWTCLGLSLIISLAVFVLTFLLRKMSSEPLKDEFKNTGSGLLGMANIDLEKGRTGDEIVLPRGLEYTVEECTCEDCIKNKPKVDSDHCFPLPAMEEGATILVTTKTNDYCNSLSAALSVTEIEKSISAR
Briefly: flow cytometry on cynoBCMA-CHO-GS cells.

Experiment [17] deals with T3, human BCMA expressed on the cell surface. Nature of the experiment: flow cytometry on U266 cells.

B1: anti-BCMA parent antibody ADI-34861 (antibody, V domains shown)
VH: QLQLQESGPGLVKPSETLSLTCTVSGGSISSSSYYWGWIRQPPGKGLEWIGSISYSGSTYYNPSLKSRVTISVDTSKNQFSLKLSSVTAADTAVYYCARDRGDTILDVWGQGTMVTVSS
VL: DIQMTQSPSSLSASVGDRVTITCRASQSISRYLNWYQQKPGKAPKLLIYAASSLQSGVPSRFSGSGSGTDFTLTISSLQPEDFATYYCQQKYFDITFGGGTKVEIK
notes: Tested as IgG (captured by anti-human Fc probe)
With B1, the Kd (commonly the free concentration of one partner at which half of the binding sites on the other are occupied at equilibrium, for simple one-to-one binding) in the experiment with Human BCMA monomer turned out to be 17.3 nM; with Human BCMA-IHM, 51.4 nM; in the experiment with Mouse BCMA-Fc, 3.68 nM; in [4], 2.11 nM. Moreover, in experiment [1], the “FON, Fold Over Negative” value was 6 fold. Further, the MFI worked out at 1400 in experiment [1] and 1000 in experiment [2]. Moreover, the “FOB, Fold Over Background” value in experiment [3] came out at 4 fold.

B2: ADI-38497 PG antibody (antibody, V domains shown)
VH: B1 VH with S30V, G37T, Y55I, S56A, T104Q, G110S
VL: DIQMTQSPSSLSASVGDRVTITCRASQSISRYLNWYQQKPGKAPKLLIYAASSLQSGVPSRFSGSGSGTDFTLTISSLQPEDFATYYCQQKYFDITFGGGTKVEIKR
notes: Expressed in HEK293 cells
B2: the half-maximal effective concentration (EC50) (commonly the concentration that produces a half-maximal response) in experiment [5] is ~1.71 nM; in [6], 2.43 nM; in [7], 1.49 nM; in experiment [8], 1.01 nM; in experiment [9], 5.11 nM; in experiment [10], 2.12 nM. Moreover, the values for the EC50 in experiment [15], in [16] and in experiment [17] were 1.18 nM, 1.69 nM and 1.79 nM, respectively. The Kd in experiment [11] worked out at 0.061 nM; in experiment [12], 0.0301 nM; in experiment [13], 1.77 nM; in experiment [14] it was 83.1 nM. For the same molecule, the koff (usually the first-order rate constant of dissociation) in [11] is 1.76e-05 s⁻¹; in experiment [12], 1.03e-05 s⁻¹; in experiment [13], 0.000872 s⁻¹; in [14] it was 0.0831 s⁻¹. Further, the kon (in general, the second-order rate constant of association) in experiment [11] amounted to 288000 M⁻¹ s⁻¹; in experiment [12] it was 340000 M⁻¹ s⁻¹; in experiment [13], 492000 M⁻¹ s⁻¹; in experiment [14], 1e+06 M⁻¹ s⁻¹.

B3: antibody ADI-38491 (antibody, V domains shown)
VH: B1 VH with S30V, G37T, Y55I, S56A
VL: B1 VL
As to B3, the Kd worked out at 1.02 nM with Human BCMA monomer, 2.62 nM in the experiment with Human BCMA-IHM, 3.04 nM with Mouse BCMA-Fc and 1.27 nM in experiment [4]. Further, in [1], the “FON, Fold Over Negative” value stood at 5 fold. Also, the MFI amounted to 1100 in experiment [1] and 996 in experiment [2]. Moreover, the “FOB, Fold Over Background” value in experiment [3] turned out to be 4 fold.

B4: antibody ADI-38497 (antibody, V domains shown)
VH: B1 VH with S30V, G37T, Y55I, S56A, T104Q, G110S
VL: B1 VL
Consider B4, for which the Kd with Human BCMA monomer came out at 0.621 nM; in the experiment with Human BCMA-IHM, 1.02 nM; with Mouse BCMA-Fc, 0.503 nM; in [4], 0.602 nM. Further, in [1], the “FON, Fold Over Negative” value was 26 fold. Also, the MFI was determined as 5670 in experiment [1] and 2320 in experiment [2]. Further, in experiment [3], the “FOB, Fold Over Background” value is 8 fold.

B5: ADI-38484 PG antibody (antibody, human IgG1, kappa, V domains shown)
VH: QVQLVQSGAEVKKPGSSVKVSCKASGGTFSNDVISWVRQAPGQGLEWMGVIIPIFGIANYAQKFQGRVTITADESTSTAYMELSSLRSEDTAVYYCARGRGYYSSWLHDIWGQGTMVTVSS
VL: DIQMTQSPSSLSASVGDRVTITCQASQDITNYLNWYQQKPGKAPKLLIYDASNLETGVPSRFSGSGSGTDFTFTISSLQPEDIATYYCQQAFDLITFGGGTKVEIKR
notes: Expressed in HEK293 cells
Take B5: the 50% effective concentration (EC50) was ~1.55 nM in experiment [5]; 4.25 nM in [6]; 1.95 nM in experiment [8]; 0.934 nM in [9]; 0.428 nM in experiment [10]; 2.79 nM in experiment [17].

B6: anti-BCMA parent antibody ADI-34857 (antibody, V domains shown)
VH: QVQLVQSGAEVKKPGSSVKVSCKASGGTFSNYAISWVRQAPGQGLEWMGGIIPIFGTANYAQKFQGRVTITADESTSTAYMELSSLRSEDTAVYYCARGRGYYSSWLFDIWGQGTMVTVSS
VL: DIQMTQSPSSLSASVGDRVTITCQASQDITNYLNWYQQKPGKAPKLLIYDASNLETGVPSRFSGSGSGTDFTFTISSLQPEDIATYYCQQAFDLITFGGGTKVEIK
notes: as for B1
On to B6, for which the Kd in the experiment with Human BCMA monomer is 35.9 nM; in the experiment with Human BCMA-IHM, 44 nM; in [4], 1.47 nM. Further, in [1], the “FON, Fold Over Negative” value is 10 fold. In addition, the MFI in experiment [1] turned out to be 2280; in [2], 877. Also, the “FOB, Fold Over Background” value in experiment [3] came to 3 fold.

B7: antibody ADI-38481 (antibody, V domains shown)
VH: B5 VH with H108L
VL: B6 VL
Regarding B7, the Kd with Human BCMA monomer was determined as 0.1 nM; with Human BCMA-IHM, 0.496 nM; with Mouse BCMA-Fc it was 2.44 nM; in experiment [4] it was 0.897 nM. For the same molecule, the “FON, Fold Over Negative” value in [1] was found to be 31 fold. Further, the MFI amounted to 6660 in [1] and 2620 in experiment [2]. Further, the “FOB, Fold Over Background” value in [3] turned out to be 10 fold.

B8: antibody ADI-38484 (antibody, V domains shown)
VH: B5 VH
VL: B6 VL
On to B8, for which the Kd was 0.0794 nM with Human BCMA monomer, 0.539 nM with Human BCMA-IHM, 0.85 nM with Mouse BCMA-Fc and 1.07 nM in experiment [4]. Also, the “FON, Fold Over Negative” value in experiment [1] turned out to be 35 fold. For the same molecule, the MFI amounted to 7720 in experiment [1] and 2720 in experiment [2]. Further, in experiment [3], the “FOB, Fold Over Background” value came to 11 fold.
